PMC12014896 (2025)

B1: COVIC-129 (antibody)
chain 1: QVQLQESGGGLVQAGGSLRLSCAASGRTFSEYAMGWFRQAPGKEREFVATISWSGGSTYYTDSVKGRFTISRDNAKNTVYLQMNSLKPDDTAVYYCAAAGLGTVVSEWDYDYDYWGQGTQVTVSSGGSGGSQVQLQESGGGLVQAGGSLRLSCAASGRTFSEYAMGWFRQAPGKEREFVATISWSGGSTYYTDSVKGRFTISRDNAKNTVYLQMNSLKPDDTAVYYCAAAGLGTVVSEWDYDYDYWGQGTQVTVSSGGGGSGGGGSASTKGPSVFPLAPSSKSTSGGTAALGCLVKDYFPEPVTVSWNSGALTSGVHTFPAVLQSSGLYSLSSVVTVPSSSLGTQTYICNVNHKPSNTKVDKKVEPKSCDKTHTCPPCPAPELLGGKKKPLDGEYFTLQIRGRERFEMFRELNEALELKDAQAGKEPG
chain 2: QVQLQESGGGLVQAGGSLRLSCAASGRTFSEYAMGWFRQAPGKEREFVATISWSGGSTYYTDSVKGRFTISRDNAKNTVYLQMNSLKPDDTAVYYCAAAGLGTVVSEWDYDYDYWGQGTQVTVSSGGSGGSQVQLQESGGGLVQAGGSLRLSCAASGRTFSEYAMGWFRQAPGKEREFVATISWSGGSTYYTDSVKGRFTISRDNAKNTVYLQMNSLKPDDTAVYYCAAAGLGTVVSEWDYDYDYWGQGTQVTVSSGGGGSGGGGSKRTVAAPSVFIFPPSDEQLKSGTASVVCLLNNFYPREAKVQWKVDNALQSGNSQESVTEQDSKDSTYSLSSTLTLSKADYEKHKVYACEVTHQGLSSPVTKSFNRGEC
B2: COVIC-172 (antibody, V domains shown)
VH: QVQLVESGGDVVQPGRSLRLSCAASGFTFSRYGMHWVRQAPGKGLEWVAVISYDGSDKYYADSVKGRFTISRDNSKNTLYLQMNSLRAEDTAVYYCAKQLPLYYYYYGMDVWGQGTTVTVSS
VL: AIQLTQSPSSLSASVGDRVTITCRASQGISSALAWYQQKPGKAPNLLIYDASSLESGVPSRFSGSGSGTDFTLTISSLQPEDFATYYCQQFNIYPHTFGPGTKVDIKR
B3: COVIC-385 (antibody, V domains shown)
VH: EVQLVESGGGLVQPGGSLRLSCKASGISVAPHAVTWVRQAPGKGLEWIGVIASNADTYYASWAKGRFTISRDNSKNTLYLQMNSLRAEDTAVYYCARHPGSAGYGYTYYYAMDPWGQGTLVTVSS
VL: DIQMTQSPSSLSASVGDRVTITCQASERVFYGIDWYQQKPGKAPKLLIYGASALWHGVPSRFSGSGSGTDYTLTISSLQPEDFATYYCQQGYMVPIGFGGGTKVEIK
B4: COVIC-360 (antibody, V domains shown)
VH: EVQLVESGGGLVQPGGSLRLSCKASGISVAPHAVTWVRQAPGKGLEWIGVIASNADTYYASWAKGRFTISRDNSKNTLYLQMNSLRAEDTAVYYCARHPGSAGYGYTYYYAMDPWGQGTLVTVSS
VL: DIQMTQSPSSLSASVGDRVTITCQASQKIHYAINWYQQKPGKAPKLLIYGTSYLGGGVPSRFSGSGSGTDFTLTISSLQPEDFATYYCQQGYIVPNSFGGGTKVEIK
B5: COVIC-64 (antibody)
chain: QVQLQESGGGLVQAGGSLRLSCAASGRTFSEYAMGWFRQAPGKEREFVATISWSGGSTYYTDSVKGRFTISRDNAKNTVYLQMNSLKPDDTAVYYCAAAGLGTVVSEWDYDYDYWGQGTQVTVSSGGSGGSQVQLQESGGGLVQAGGSLRLSCVASGSIFSINAMDWYRQAPGKQRELVAGITSGGSTNYGDFVKGRFTISRDNAKNTVYLQMDSLKPEDTAVYYCAAEVGGWGPPRPDYWGHGTQVTVSSGGGGSGGGGSKKKPLDGEYFTLQIRGRERFEMFRELNEALELKDAQAGKEPG
B6: COVIC-164 (antibody, V domains shown)
VH: EVQLVESGGGLIQPGGSLRLSCAAAGLTVSSNYMNWVRQVPGKGLEWVSVIYSGGSTYYADSVKGRFTISRDNSKNTLYLQMNSLRAEDTAVYYCARDLGTLGMDVWGQGTTVTVSS
VL: DIQLTQSPSFLSASVGDRVTITCWASQGISTYLAWYQQKPGKAPKLLIYAASTLQSGVPSRFSGSGSGTEFTLTISSLQPEDFATYYCQQLNSYLPTFGQGTKVEIKR
B7: COVIC-158 (antibody, V domains shown)
VH: EVQLVESGGGLIQPGGSLRLSCAASGLTVSSNYMNWVRQAPGKKLEWVSVIYSGGSTFYADSVRGRFTISRDNSKNTLFLQMNSLRAEDSAVYYCARDLGPYGVDVWGQGTTVTVSS
VL: DIQLTQSPSFLSASVGDRVTITCWASQGISSYLAWYQQKPGKAPKLLIYAASTLQSGVPSRFSGSGSGTEFTLTISSLQPEDFATYYCQQLNSYPLTFGQGTRLEIKR
B8: COVIC-310 (antibody)
chain 1: QVQLVQSGAEVKKPGSSVKVSCKASGGTFGISWVRQAPGQGLEWMGRIIPILGTANHAQKFQGRVTITADKSTGTVYMELSSLRSEDTAVYYCARDGDSGSYYETLGFDYWGQGTLVTVSSGGGGSGGGGSGGGGQVQLVESGGGVVQSGRSLRLSCAASGFTFSSYAMHWVRQAPGKGLEWVAVISHDGSNTYYEDSVKGRFTISRDNSKNTLHLQVNSLRVEDTAVYYCARAKGEVRYFDWAEQGGDYWGQGTLVTVSS
chain 2: QSALTQPPSASGSPGQSVTISCTGTSSDVGGYNYVSWYQQHPGKAPKLMIYEVNKRPSGVPDRFSGSKSGNTASLTVSGLQAEDEADYYCSSYAGSNNLVFGGGTKLTVLGGGGSGGGGSGGGGSYELTQPPSVSVSPGQTARITCSGDALPKKYAYWYQQKSGQAPVLVIYEDSKRPSGIPERFSGSSSGTMATLTISGAQVEDEADYYCYSTDNSGDHGVFGGGTKLTVL
B9: COVIC-166 (antibody, V domains shown)
VH: QVQLVESGGGVVQPGRSLRLSCAASGFTFSSYGMHWVRQAPGKGLEWVAVISYDGSDKYYADSVKGRFTISRDNSKNTLYLQMNSLRAEDTAVYYCAKTVAGYYYYYYGMDVWGQGTTVTVSS
VL: DIQMTQSPSSVSASVGDRVTVTCRASQDISSWLAWFQQKPGKAPKFLIYDASNLENGVPSRFSGSGSGTDFTLTISSLQPEDFATYYCQQAKSFPWTFGQGTKVEINR
B10: COVIC-140 (antibody, V domains shown)
VH: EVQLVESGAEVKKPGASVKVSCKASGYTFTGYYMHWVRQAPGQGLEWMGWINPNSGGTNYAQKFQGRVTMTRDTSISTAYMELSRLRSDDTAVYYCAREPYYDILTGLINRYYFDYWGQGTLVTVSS
VL: QSALTQPASVSGSPGQSITISCTGTSSDVGGYNFVSWYQQHPGKAPKLMIYEVSNRPSGVSNRFSGSKSGNTASLTISGLQAEDEADYYCSSYTSSSTRVFGGGTKLTVL
B11: COVIC-249 (antibody, V domains shown)
VH: QVQLVQPGGGVIQPGRSLRLSCTASGFTFSSYPMHWVRQAPGKGLEWVAVISYDGDNKYYADSVKGRFTISRDNSKNTLYLQMNSLKSDDTAMYYCARDYVVVILSDSFYYGMDVWGQGTTVTVSS
VL: QSALTQPRSVSGSPGQSVTISCTGTSSDVGGYNYVSWYQQYPGKAPKLMIYDVSKRPSGVPDRFSGSKSGNTASLTISGLQGEDEADYYCCSYAGSYTYVFGTGTKVTVL
B12: COVIC-391 (antibody, V domains shown)
VH: QVQLVQSGAEVKKPGSSVKVSCKASGGTFSSYVINWVRQAPGQGLEWMGGIIPTLGTTNYAQKFQGRVTITADKSTSTAYMELSSLRSEDTAVYYCARAGGYSGSGSNYYMDVWGKGTTVTVSS
VL: QSVLTQPPSVSGAPGQRVTISCTGSSSNIGAGYDVHWYQQLPGTAPKLLIYANNNRPSGVPDRFSGSNSGTSASLAITGLQAEDEADYYCQSYDSSLSDSVFGGGTKLTVL
B13: COVIC-311 (antibody)
chain 1: QVQLVESGGGVVQSGRSLRLSCAASGFTFSSYAMHWVRQAPGKGLEWVAVISHDGSNTYYEDSVKGRFTISRDNSKNTLHLQVNSLRVEDTAVYYCARAKGEVRYFDWAEQGGDYWGQGTLVTVSSGGGGSGGGGSGGGGQVQLVQSGAEVKKPGSSVKVSCKASGGTFGISWVRQAPGQGLEWMGRIIPILGTANHAQKFQGRVTITADKSTGTVYMELSSLRSEDTAVYYCARDGDSGSYYETLGFDYWGQGTLVTVSS
chain 2: SYELTQPPSVSVSPGQTARITCSGDALPKKYAYWYQQKSGQAPVLVIYEDSKRPSGIPERFSGSSSGTMATLTISGAQVEDEADYYCYSTDNSGDHGVFGGGTKLTVLGGGGSGGGGSGGGGQSALTQPPSASGSPGQSVTISCTGTSSDVGGYNYVSWYQQHPGKAPKLMIYEVNKRPSGVPDRFSGSKSGNTASLTVSGLQAEDEADYYCSSYAGSNNLVFGGGTKLTVL
B14: COVIC-331 (antibody, V domains shown)
VH: EVQLVESGGGLIQVGGSLRLSCAASGLTVTSNYMNWVRQGPGKGLEWVSLIYSGGTTYYADSVKGRFTISRDDSKNTLYLQMNSLRAEDTAVYYCARPIVGARSGMDVWGQGTAVTVSS
VL: DIQMTQSPSSLSASVGDRVTITCQASQDINKYLNWYQQKPGKAPKLLIYDASNLETGVPSRFSGSGSGTDFTFTISSLQPEDLATYYCHQFDNLPGTFGGGTKVEIK
B15: COVIC-367 (antibody, V domains shown)
VH: EVQLVESGGGLVQPGRSLRLSCAASGFTFDDYAMHWVRQAPGKGLEWVSGVSWNSGTIGYADSVKGRFIISRDNAKNSLYLQMRSLRAEDTALYYCAKDVSVYRFREQSYGMDVWGQGTTVTVLS
VL: QSALTQSASVSGSPGQSITISCTGTSSDIGGYNFVSWYQQHPGKAPKLMIYEVTTRPSGVSNRFSGSKSGNTASLTISGLQAEDEADYYCSSYTSSSLVVFGGGTKLALLG
B16: COVIC-122 (antibody)
chain: QVQLQESGGGLVQAGGSLRLSCAASGRTFSEYAMGWFRQAPGKEREFVATISWSGGSTYYTDSVKGRFTISRDNAKNTVYLQMNSLKPDDTAVYYCAAAGLGTVVSEWDYDYDYWGQGTQVTVSSGGSGGSQVQLQESGGGLVQAGGSLRLSCAASGRTFSEYAMGWFRQAPGKEREFVATISWSGGSTYYTDSVKGRFTISRDNAKNTVYLQMNSLKPDDTAVYYCAAAGLGTVVSEWDYDYDYWGQGTQVTVSSGGGGSGGGGSKKKPLDGEYFTLQIRGRERFEMFRELNEALELKDAQAGKEPGGGGGSGGGGSQVQLQESGGGLVQAGGSLRLSCAASGRTFSEYAMGWFRQAPGKEREFVATISWSGGSTYYTDSVKGRFTISRDNAKNTVYLQMNSLKPDDTAVYYCAAAGLGTVVSEWDYDYDYWGQGTQVTVSSGGSGGSQVQLQESGGGLVQAGGSLRLSCAASGRTFSEYAMGWFRQAPGKEREFVATISWSGGSTYYTDSVKGRFTISRDNAKNTVYLQMNSLKPDDTAVYYCAAAGLGTVVSEWDYDYDYWGQGTQVTVSS
B17: COVIC-128 (antibody)
chain 1: not shown
chain 2: QVQLQESGGGLVQAGGSLRLSCAASGRTFSEYAMGWFRQAPGKEREFVATISWSGGSTYYTDSVKGRFTISRDNAKNTVYLQMNSLKPDDTAVYYCAAAGLGTVVSEWDYDYDYWGQGTQVTVSSGGSGGSQVQLQESGGGLVQAGGSLRLSCVASGSIFSINAMDWYRQAPGKQRELVAGITSGGSTNYGDFVKGRFTISRDNAKNTVYLQMDSLKPEDTAVYYCAAEVGGWGPPRPDYWGHGTQVTVSSGGGGSGGGGSKRTVAAPSVFIFPPSDEQLKSGTASVVCLLNNFYPREAKVQWKVDNALQSGNSQESVTEQDSKDSTYSLSSTLTLSKADYEKHKVYACEVTHQGLSSPVTKSFNRGEC

These binders were tested against SARS-CoV-2 spike RBD (Wuhan-Hu-1) (Severe acute respiratory syndrome …, UniProt P0DTC2) (assay: SPR).
In the case of B1, the Kd is reported as 135 nM.
With B2 the Kd was 9.47 nM.
Binder B3 has a Kd of 0.0327 nM.
B4 was tested, and the Kd was 0.0132 nM.
B5 gave a Kd of 169 nM.
In the case of B6, the Kd is reported as 2.25 nM.
Work on B7 yielded a Kd of 1.59 nM.
B8 showed a Kd of 1.85 nM.
B9 was tested, and the Kd was 0.826 nM.
Binder B10 has a Kd of 190 nM.
Binder B11 has a Kd of 9.81 nM.
In the case of B12, the Kd is reported as 0.0198 nM.
In the case of B13, the Kd is reported as 3.03 nM.
B14 gave a Kd of 0.0704 nM.
Binder B15 has a Kd of 0.0301 nM.
Work on B16 yielded a Kd of 203 nM.
Binder B17 has a Kd of 119 nM.
